The labels stand for the following.
B1: Recombinant DR3-Fc (Fc fusion, UniProt Q93038 25-199, looked up)
chain: QGGTRSPRCDCAGDFHKKIGLFCCRGCPAGHYLKAPCTEPCGNSTCLVCPQDTFLAWENHHNSECARCQACDEQASQVALENCSAVADTRCGCKPGWFVECQVSQCVSSSPFYCQPCLDCGALHRHTRLLCSRRDTDCGTCLPGFYEHGDGCVSCPTSTLGSCPERCAAVCGWRQ
notes: death receptor 3 (DR3); dimeric MW ~92 kDa as printed; the catalogue product is, as I recall, the human extracellular domain fused to human IgG1 Fc; also called death receptor 3; source: bought: R&D Systems, cat. # 943-D3
B6: His-TL1A (TL1W2) (ligand, human, UniProt O95150 1-251, looked up)
chain: VYAPLRADGDKPRAHLTVVRQTPTQHFKNQFPALHWEHELGLAFTKNRMNYTNKFLLIPESGDYFIYSQVTFRGMTSECSEIRQAGRPNKPDSITVVITKVTDSYPEPTQLLMGTKSVCEVGSNWFQPIYLGAMFSLQEGDKLMVNVSDISLVDYTKEDKTFFGAFLL
notes: TL1A (TNFSF15), human; C-terminal extracellular domain comprising the TNF homology domain; non-covalent trimer; also called wild-type TL1A; source: Expi293 cells, transfected, purified (Ni-NTA, preparative gel filtration)
B7: Fc-TL1A (TL1W3) (Fc fusion, human, UniProt O95150 1-251, looked up)
chain: VYAPLRADGDKPRAHLTVVRQTPTQHFKNQFPALHWEHELGLAFTKNRMNYTNKFLLIPESGDYFIYSQVTFRGMTSECSEIRQAGRPNKPDSITVVITKVTDSYPEPTQLLMGTKSVCEVGSNWFQPIYLGAMFSLQEGDKLMVNVSDISLVDYTKEDKTFFGAFLL
notes: TL1A (TNFSF15), human; C-terminal extracellular domain comprising the TNF homology domain; 3:2 ratio of Fc:TL1A trimers; also called Fc-TL1A W3; source: Expi293 cells, transfected, purified (mAbSelect SuRe, preparative gel filtration); not shown: Fc (IgG1), N-terminal, kept
B8: HSA-TL1A (TL1W9) (ligand, human, UniProt O95150 1-251, looked up)
chain: VYAPLRADGDKPRAHLTVVRQTPTQHFKNQFPALHWEHELGLAFTKNRMNYTNKFLLIPESGDYFIYSQVTFRGMTSECSEIRQAGRPNKPDSITVVITKVTDSYPEPTQLLMGTKSVCEVGSNWFQPIYLGAMFSLQEGDKLMVNVSDISLVDYTKEDKTFFGAFLL
notes: TL1A (TNFSF15), human; C-terminal extracellular domain comprising the TNF homology domain; ratio of HSA to TL1A trimer 3:1; source: Expi293 cells, transfected, purified (Ni-NTA, preparative gel filtration); not shown: HSA (human serum albumin), N-terminal, kept

Data set [1] addresses B6. The experiment in a line: ELISA; reversed format: TL1A molecules immobilised, DR3 titrated. Conditions: both partners purified. On the technique in general: ELISA stands for enzyme-linked immunosorbent assay.
Data set [2] has as its target B8. The description is as above. Conditions: both partners purified.
Data set [3] deals with B7. The description is as above. The note with it: both partners purified.
Data set [4] addresses B1. The experiment in a line: ELISA; DR3-Fc immobilised non-specifically on Maxisorp plates (overnight, 4 °C), casein block; TL1A added in 3-fold dilutions, overnight 4 °C; bound TL1A detected with polyclonal rabbit anti-human TL1A-biotin and streptavidin-HRP; concentrations normalised to TL1A trimers; triplicate. Conditions: both partners purified.
For data set [5], the target named is T1, DcR3 (TNFRSF6B) (UniProt O95407 30-300).
T1 construct: soluble decoy receptor DcR3 (TNFRSF6B); the catalogue product is, as I recall, an Fc chimera; the SPR methods name capture by goat anti-human-Fc; also called decoy receptor DcR3; recombinant DcR3 protein
T1 sequence (looked up): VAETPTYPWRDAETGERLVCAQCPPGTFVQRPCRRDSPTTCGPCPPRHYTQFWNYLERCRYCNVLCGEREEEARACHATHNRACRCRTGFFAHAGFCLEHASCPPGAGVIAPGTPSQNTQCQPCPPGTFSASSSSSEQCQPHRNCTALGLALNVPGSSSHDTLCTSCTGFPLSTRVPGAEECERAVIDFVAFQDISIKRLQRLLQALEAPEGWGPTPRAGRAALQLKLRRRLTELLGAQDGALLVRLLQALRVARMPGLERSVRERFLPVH
Briefly: ELISA; TL1A variants on DcR3; who was immobilised is not told for DcR3; triplicate. Conditions: both partners purified.

Data set [6] concerns the molecule itself. Briefly: SEC; preparative gel filtration after affinity capture, Sepax SRT-C SEC-300, 20 mM sodium phosphate pH 6.8; the main peak is taken as the target oligomer.

As to B1, the EC50 – broadly, the concentration at which the effect is half-maximal – is 2.5 nM in data set [1], greater than 4000 nM in data set [2] and 2.6 nM in data set [3].

B2: TL1W328.001 (K111A L123K M158Y Q167A S187L N207F) (Fc fusion, human)
chain: VYAPLRADGDKPRAHLTVVRQTPTQHFANQFPALHWEHEKGLAFTKNRMNYTNKFLLIPESGDYFIYSQVTFRGYTSECSEIRAAGRPNKPDSITVVITKVTDLYPEPTQLLMGTKSVCEVGSFWFQPIYLGAMFSLQEGDKLMVNVSDISLVDYTKEDKTFFGAFLLGGSGGSGGSVYAPLRADGDKPRAHLTVVRQTPTQHFANQFPALHWEHEKGLAFTKNRMNYTNKFLLIPESGDYFIYSQVTFRGYTSECSEIRAAGRPNKPDSITVVITKVTDLYPEPTQLLMGTKSVCEVGSFWFQPIYLGAMFSLQEGDKLMVNVSDISLVDYTKEDKTFFGAFLLGGSGGSGGSVYAPLRADGDKPRAHLTVVRQTPTQHFANQFPALHWEHEKGLAFTKNRMNYTNKFLLIPESGDYFIYSQVTFRGYTSECSEIRAAGRPNKPDSITVVITKVTDLYPEPTQLLMGTKSVCEVGSFWFQPIYLGAMFSLQEGDKLMVNVSDISLVDYTKEDKTFFGAFLL
notes: TL1A (TNFSF15), human, residues 84-251; first of three units; linker between TL1A units; second unit; third unit; combination mutant in the Fc-scTL1A format; the mutations are written on each of the three TL1A units; source: Expi293 cells, transfected, purified (mAbSelect SuRe); not shown: Fc (IgG1), N-terminal, kept
Consider B2, for which the EC50 in data set [4] was 8.8 nM.

B3: TL1W327.001 (K111A L123K M158Y Q167A S187L E190F) (Fc fusion, human)
chain: VYAPLRADGDKPRAHLTVVRQTPTQHFANQFPALHWEHEKGLAFTKNRMNYTNKFLLIPESGDYFIYSQVTFRGYTSECSEIRAAGRPNKPDSITVVITKVTDLYPFPTQLLMGTKSVCEVGSNWFQPIYLGAMFSLQEGDKLMVNVSDISLVDYTKEDKTFFGAFLLGGSGGSGGSVYAPLRADGDKPRAHLTVVRQTPTQHFANQFPALHWEHEKGLAFTKNRMNYTNKFLLIPESGDYFIYSQVTFRGYTSECSEIRAAGRPNKPDSITVVITKVTDLYPFPTQLLMGTKSVCEVGSNWFQPIYLGAMFSLQEGDKLMVNVSDISLVDYTKEDKTFFGAFLLGGSGGSGGSVYAPLRADGDKPRAHLTVVRQTPTQHFANQFPALHWEHEKGLAFTKNRMNYTNKFLLIPESGDYFIYSQVTFRGYTSECSEIRAAGRPNKPDSITVVITKVTDLYPFPTQLLMGTKSVCEVGSNWFQPIYLGAMFSLQEGDKLMVNVSDISLVDYTKEDKTFFGAFLL
notes: TL1A (TNFSF15), human, residues 84-251; first of three units; linker between TL1A units; second unit; third unit; combination mutant in the Fc-scTL1A format; the mutations are written on each of the three TL1A units; also called AKYALF190; source: Expi293 cells, transfected, purified (mAbSelect SuRe); not shown: Fc (IgG1), N-terminal, kept
B3: the EC50 in data set [4] was 37.5 nM.

B4: TL1W331.001 (K111A L123K Q167A S187L E190F N207F) (Fc fusion, human)
chain: VYAPLRADGDKPRAHLTVVRQTPTQHFANQFPALHWEHEKGLAFTKNRMNYTNKFLLIPESGDYFIYSQVTFRGMTSECSEIRAAGRPNKPDSITVVITKVTDLYPFPTQLLMGTKSVCEVGSFWFQPIYLGAMFSLQEGDKLMVNVSDISLVDYTKEDKTFFGAFLLGGSGGSGGSVYAPLRADGDKPRAHLTVVRQTPTQHFANQFPALHWEHEKGLAFTKNRMNYTNKFLLIPESGDYFIYSQVTFRGMTSECSEIRAAGRPNKPDSITVVITKVTDLYPFPTQLLMGTKSVCEVGSFWFQPIYLGAMFSLQEGDKLMVNVSDISLVDYTKEDKTFFGAFLLGGSGGSGGSVYAPLRADGDKPRAHLTVVRQTPTQHFANQFPALHWEHEKGLAFTKNRMNYTNKFLLIPESGDYFIYSQVTFRGMTSECSEIRAAGRPNKPDSITVVITKVTDLYPFPTQLLMGTKSVCEVGSFWFQPIYLGAMFSLQEGDKLMVNVSDISLVDYTKEDKTFFGAFLL
notes: TL1A (TNFSF15), human, residues 84-251; first of three units; linker between TL1A units; second unit; third unit; combination mutant in the Fc-scTL1A format; the mutations are written on each of the three TL1A units; also called Fc-scTL1A-AKALFF; Fc-scTL1A AKALFF; source: Expi293 cells, transfected, purified (mAbSelect SuRe); not shown: Fc (IgG1), N-terminal, kept
As for B4, in data set [4], the EC50 worked out at 9 nM.

B5: TL1W329.001 (K111A L123K M158Y Q167A E190F N207F) (Fc fusion, human)
chain: VYAPLRADGDKPRAHLTVVRQTPTQHFANQFPALHWEHEKGLAFTKNRMNYTNKFLLIPESGDYFIYSQVTFRGYTSECSEIRAAGRPNKPDSITVVITKVTDSYPFPTQLLMGTKSVCEVGSFWFQPIYLGAMFSLQEGDKLMVNVSDISLVDYTKEDKTFFGAFLLGGSGGSGGSVYAPLRADGDKPRAHLTVVRQTPTQHFANQFPALHWEHEKGLAFTKNRMNYTNKFLLIPESGDYFIYSQVTFRGYTSECSEIRAAGRPNKPDSITVVITKVTDSYPFPTQLLMGTKSVCEVGSFWFQPIYLGAMFSLQEGDKLMVNVSDISLVDYTKEDKTFFGAFLLGGSGGSGGSVYAPLRADGDKPRAHLTVVRQTPTQHFANQFPALHWEHEKGLAFTKNRMNYTNKFLLIPESGDYFIYSQVTFRGYTSECSEIRAAGRPNKPDSITVVITKVTDSYPFPTQLLMGTKSVCEVGSFWFQPIYLGAMFSLQEGDKLMVNVSDISLVDYTKEDKTFFGAFLL
notes: as for B2
With B5, the EC50 in data set [4] amounted to 8.7 nM.

As for B6, the EC50 came out at 4.6 nM in data set [5] and 26.2 nM in data set [4]. Besides, the stoichiometry N (as a rule, the number of molecules, sites or subunits per partner or assembly) in data set [6] turned out to be 3.

B7: the “stoichiometry N” value in data set [6] was found to be 6.

For B8, the “stoichiometry N” value in data set [6] was 3.
